These results are taken from paper PMC2191085.

Assay [1] has as its target CD2 on human PBLs (human (endogenous in PBLs)) (UniProt P06729).
The target of assay [2] is CD2 on Jurkat cells (human (endogenous in Jurkat)) (UniProt P06729). Kind of assay: inhibition of cell rosetting.

As to “LFA3TIP (first domain-LFA-3/IgG1 fusion protein) (Fc fusion)”, the inhibition of T cell proliferation in response to HBsAg, LFA3TIP at 2 ug/ml in assay [1] was 85%.

For “multimeric phosphoinositol-linked LFA-3 (PI-LFA-3) (ligand)”, the fold lower concentration than LFA3TIP for inhibition of rosetting in assay [2] was found to be 300 fold.
